Results published in patent publication US20090286279.

What was measured:
[1] = target: [Leu^1, Thr^2]-63-desulfo-hirudin (Lepirudin (Refludan)) (UniProt P01050)
[2] = target: sulfo-hirudin ([Leu^1, Thr^2]-hirudin with sulfotyrosine at position 63, expressed in E. coli from pBAD-HirudinTAG) (UniProt P01050)

human α-thrombin (Diapharma)
thrombin activity (cleavage of fluorogenic substrate Boc-Asp(OBzl)-Pro-Arg-MCA, fluorescence intensity over time) [1]: Cleavage of the fluorogenic substrate by thrombin, whose activity is inhibited to different degrees by sulfo-hirudin and desulfo-hirudin | thrombin activity (cleavage of fluorogenic substrate Boc-Asp(OBzl)-Pro-Arg-MCA, fluorescence intensity over time) [2]: Cleavage of the fluorogenic substrate by thrombin, whose activity is inhibited to different degrees by sulfo-hirudin and desulfo-hirudin
